Substrate in data set [1]: CC(=O)SCCNC(=O)CCNC(=O)[C@H](O)C(C)(C)COP(=O)(O)OP(=O)(O)OC[C@H]1O[C@@H](n2cnc3c(N)ncnc32)[C@H](O)[C@@H]1OP(=O)(O)O
The data set can be described thus: coupled fluorescence assay with beta-hexosaminidase (4-methylumbelliferone release), Michaelis-Menten fit. To be noted: MU-GlcNH2 fixed at 1 mM, CP buffer pH 5.5, 37 °C, liposomes with 20% PI, random sequential ternary-complex mechanism. It counts as biochemical, Homo sapiens. An excerpt: (§1) coupled fluorescence assay with beta-hexosaminidase (4-methylumbelliferone release), Michaelis-Menten fit on N-acetyltransferase-His8Flag (heparin acetyl-CoA:alpha-glucosaminide N-acetyltransferase)

Substrate in data set [2]: Cc1cc(=O)oc2cc(O[C@@H]3O[C@H](CO)[C@@H](O)[C@H](O)[C@H]3N)ccc12
The data set is described as above. It counts as biochemical, Homo sapiens. To be noted: acetyl-CoA fixed at 2 mM, CP buffer pH 5.5, 37 °C, liposomes with 20% PI, random sequential ternary-complex mechanism.
Source text: as §1

B1: N-acetyltransferase-His8Flag (heparin acetyl-CoA:alpha-glucosaminide N-acetyltransferase) (Homo sapiens) (protein)
chain: RDAQAAPPRDLDKKRHAELKMDQALLLIHNELLWTNLTVYWKSECCYHCLFQVLVNVPQSPKAGKPSAAAASVSTQHGSILQLNDTLEEKEVCRLEYRFGEFGNYSLLVKNIHNGVSEIACDLAVNEDPVDSNLPVSIAFLIGLAVIIVISFLRLLLSLDDFNNWISKAISSRETDRLINSELGSPSRTDPLDGDVQPATWRLSALPPRLRSVDTFRGIALILMVFVNYGGGKYWYFKHASWNGLTVADLVFPWFVFIMGSSIFLSMTSILQRGCSKFRLLGKIAWRSFLLICIGIIIVNPNYCLGPLSWDKVRIPGVLQRLGVTYFVVAVLELLFAKPVPEHCASERSCLSLRDITSSWPQWLLILVLEGLWLGLTFLLPVPGCPTGYLGPGGIGDFGKYPNCTGGAAGYIDRLLLGDDHLYQHPSSAVLYHTEVAYDPEGILGTINSIVMAFLGVQAGKILLYYKARTKDILIRFTAWCCILGLISVALTKVSENEGFIPVNKNLWSLSYVTTLSSFAFFILLVLYPVVDVKGLWTGTPFFYPGMNSILVYVGHEVFENYFPFQWKLKDNQSHKEHLTQNIVATALWVLIAYILYRKKIFWKI
notes: full length 635 aa with C-terminal His8-Flag tag kept; stably expressed in HeLa cells, DDM extract, anti-Flag purified; signal peptide cleaved; mix of 62 kDa precursor and processed alpha (Lys43-Asn144, N-terminus KKRHAE) and beta (Gly145-Ile635, N-terminus GVSEIA) chains; native about 80 kDa, monomer
For B1, in data set [1], the Km is 0.50 ± 0.02 mM, the Vmax amounted to 6.33 µmol/min/mg and the kcat came to 7.33 ± 0.1 s⁻¹. Besides, in data set [2], the Michaelis-Menten constant (Km) was found to be 0.45 ± 0.09 mM, the Vmax came to 9 µmol/min/mg and the kcat turned out to be 10.4 ± 1.14 s⁻¹.

These data come from PMC3177862, “Characterization of the Biosynthesis, Processing and Kinetic Mechanism of Action of the Enzyme Deficient in Mucopolysaccharidosis IIIC” (PLoS ONE, 2011).
